The target of test [1] is full-length Kip2-Δ70 (S. cerevisiae) (UniProt P28743). In words: TIRF microscopy, tubulin transport assay.
The target of test [2] is stabilized microtubules polymerized from pig brain tubulin (GMPCPP-stabilized or Taxotere-stabilized) (pig). The test can be described thus: TIRF microscopy of fluorescent kinesin on surface-attached microtubules.
Test [3] has the same target. The description is as above. The source holds these as a separate data set.

Our source for the fold reduction of tubulin transport events against wild type Kip2 and fold lower affinity than bKip2-WT values is publication doi:10.1101/2024.07.19.604271.

Where two headings read alike, the source gives them in different places.

As to “free tubulin dimers, ATTO-488-labelled, from pig brain (complex)”, the fold reduction of tubulin transport events against wild type Kip2 in test [1] is 3 to 8 fold. Substance “bKip2-Δ70 (from UniProt P28743 71-560) (domain or fragment)” gave a fold lower affinity than bKip2-WT in test [2] of 1.3 fold. With “bKip2-P1 (motor domain P1 mutant, K294R K296R) (from UniProt P28743 1-560) (domain or fragment)”, the fold lower affinity than bKip2-WT in test [3] came to 2.8 fold; in test [2], 3.5 fold.
